Assays:
[1] = target: CD3 on human T cells (Jurkat cells, primary human T cells) (human) (UniProt P07766); test: flow cytometry; positive control scFv on human T cells, anti-His Alexa-647
[2] = target: CD3 on human T cells (Jurkat cells, primary human T cells) (human) (UniProt P07766); test: flow cytometry; 10 nM antibody on Jurkat cells (No Ab background 2075.61)

CD3 on human T cells (Jurkat cells, primary human T cells) (human), sequence (P07766 23-207): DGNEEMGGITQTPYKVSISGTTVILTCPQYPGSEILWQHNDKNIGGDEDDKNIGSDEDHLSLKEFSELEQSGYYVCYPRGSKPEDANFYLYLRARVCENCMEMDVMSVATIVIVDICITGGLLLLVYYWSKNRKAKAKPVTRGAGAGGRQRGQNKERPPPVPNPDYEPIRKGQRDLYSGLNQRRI

MFI (n = 2) [1] | MFI (arbitrary units) (arbitrary units) [2] | Substance
99500 | – | CD3W36 (anti-CD3 antibody SP34 formatted as LH-scFv, positive control)
– | 89200 | UCHT1 (anti-CD3 clone, positive control) (antibody)

From patent US20220033505A1
